{"source": "paper PMC3894216", "about": "(PLoS Pathogens, 2014)", "proteins": {"B1": {"name": "GST-CNF1 N-terminal fragment (aa 1-342) (domain or fragment)", "chain": "MGNQWQQKYLLEYNELVSNFPSPERVVSDYIKNCFKTDLPWFSRIDPDNAYFICFSQNRSNSRSYTGWDHLGKYKTEVLTLTQAALINIGYRFDVFDDANSSTGIYKTKSADVFNEENEEKMLPSEYLHFLQKCDFAGVYGKTLSDYWSKYYDKFKLLLKNYYISSALYLYKNGELDEREYNFSMNALNRSDNISLLFFDIYGYYASDIFVAKNNDKVMLFIPGAKKPFLFKKNIADLRLTLKELIKDSDKQQLLSQHFSLYSRQDGVSYAGVNSVLHAIENDGNFNESYFLYSNKTLSNKDVFDAIAISVKKRSFSDGDIVIKSNSEAQRDYALTILQTIL"}}, "molecular_target": "the molecule itself", "assay": "SDS-stable oligomer band of the purified protein", "data": [{"protein": "B1", "values": [{"measurement": "stoichiometry N", "result": 4}]}]}
